Results from patent US20210087265A1 (PROGASTRINE ET CANCERS S R L, published 2021).

Biological target: T1, human progastrin (human, UniProt P01350 22-101)
T1 construct: 80-residue progastrin, i.e. preprogastrin (AAB19304.1) without its 21-residue signal peptide; also called hPG; PG
T1 sequence: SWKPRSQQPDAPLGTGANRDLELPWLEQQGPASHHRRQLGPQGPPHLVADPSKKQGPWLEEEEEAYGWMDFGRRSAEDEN
Assay: epitope mapping (method not described)

Row | Binder | binding result
1 | mAb3 (antibody, V domains shown, Murine monoclonal antibody from a hybridoma; also called hybridoma 6B5B11C10) VH: EVQLQQSGTVLARPGASVKMSCKASGYIFTSYWVHWVKQRPGQGLEWIGGFYPGNSDSRYNQKFKGKATLTAVTSASTAYMDLSSLTNEDSAVYFCTRRDSPQYWGQGTTLTVSS VL: DVLMTQTPLSLPVSLGDQASISCRSSQSIVHSNGNTYLEWYLQKPGQSPKLLIYKVSNRFSGVPDRFSGSGSGTDFTLKISRLEAEDLGVYYCFQGSHVPFTFGGGTKLEIK | binds
2 | mAb4 (antibody, V domains shown, Murine monoclonal antibody from a hybridoma; also called hybridoma 20D2C3G2) VH: QVQLQQSGAELMKPGASVKISCKATGYTFSSSWIEWLKQRPGHGLEWIGEFLPGSGSTDYNEKFKGKATFTADTSSDTAYMLLSSLTSEDSAVYYCATDGNYDWFAYWGQGTLVTVSA VL: DLVMTQTPLSLPVSLGDQASISCRSSQSLVHSSGVTYLHWYLQKPGQSPKLLIYKVSNRFSGVPDRFSGSGSGTDFTLKISRVEAEDLGVYFCSQSTHVPPTFGSGTKLEIK | binds
3 | mAb16 (antibody, V domains shown, Murine monoclonal antibody from a hybridoma; also called hybridoma 1E9D9B6) VH: QVQLQQSGAELVKPGASVKLSCKASGYTFTSYYMYWVKQRPGQGLEWIGEINPSNGGTNFNEKFKSKATLTVDKSSSTAYMQLSSLTSEDSAVYYCTRGGYYPFDYWGQGTTLTVSS VL: not shown | binds
4 | mAb19 (antibody, V domains shown, Murine monoclonal antibody from a hybridoma; also called hybridoma 1B3B4F11) VH: DVQLQESGPGLVKPSQSLSLTCTVTGYSITSDYAWNWIRQFPGNKLEWMGYISFSGYTSYNPSLKSRISVTRDTSRNQFFLQLTSVTTEDTATYYCAREVNYGDSYHFDYWGQGTIVTVSS VL: QLALTQSSSASFSLGASAKLTCTLSSQHRTYTIEWYQQQSLKPPKYVMEVKKDGSHSTGHGIPDRFSGSSSGADRYLSISNIQPEDEAIYICGVGDAIKGQSVFVFGGGTKVTVL | binds
5 | mAb13 (antibody, V domains shown, Murine monoclonal antibody from a hybridoma; also called hybridoma 2C6C3C7) VH: EVQLVESGGGLVQPGGSLKLSCAASGFIFSSYGMSWVRQSPDRRLELVASINTFGDRTYYPDSVKGRFTISRDNAKNTLYLQMTSLKSEDTAIYYCARGTGTYWGQGTTLTVSS VL: not shown | binds
